Laboratory results: patent publication US20190135921A1, “METHODS OF PREVENTING OR TREATING SLAMF7 POSITIVE AND SLAMF7 NEGATIVE CANCERS” (ADAERATA, LIMITED PARTNERSHIP, priority 2016, published 2019)

How the values were obtained:
thymocytes = assay: induction of apoptotic thymocytes (annexin V); format: cell-based, mouse; conditions: 1 μM, 10 hours, 37° C.; data not shown
[1] = system: Colo205, SW480 and SW620 cells; assay: in vitro phagocytosis assay, mouse BMDMs with human non-hematopoietic tumor cells; format: cell-based; conditions: BMDMs pretreated with LPS; FIG. 2R
Experimental: In vitro phagocytosis assays. For the microscopy-based assay, 5×10^4 macrophages were seeded overnight in a 24-well tissue culture plate. On the next day, target cells were washed and labeled with 2.5 μM of carboxyfluorescein succinimidyl ester (CFSE), using the CFSE Cell Proliferation Kit (C34554; Life Technologies, Burlington, ON, Canada). After incubating macrophages in serum-free medium for 2 hours, 2×10^5 CFSE-labeled target cells were added to the macrophages, in the presence of anti-CD47 Ab or control IgG (10 μg/mL). After incubation for 2 hours at 37° C., macrophages were extensively washed and imaged with an inverted microscope (Carl Zeiss Axiovert™ S100 TV). The phagocytosis efficiency was calculated as the number of macrophages containing CFSE^+ target cells per 100 macrophages. […] Cells were then stained on ice for 30 minutes with APC conjugated-anti-human Tac (CD25) and PE-conjugated MAb F4/80, and analyzed by flow cytometry. After gating on F4/80^+Tac^− cells (which include macrophages but exclude non-phagocytosed Tac-positive L1210 cells), phagocytosis efficiency was determined as the percentage of F4/80^+Tac^− cells containing CFSE-derived green fluorescence (detected in FL1 channel). […] They were then stained with APC-conjugated anti-F4/80 and analyzed by flow cytometry. […] Phagocytosis was monitored by microscopy. […]

[2] = biological target: T1, mouse CD11b (integrin alphaM, alpha subunit of Mac-1) (mouse, UniProt P05555 17-1153); assay: anti-FLAG IP from RAW264.7 cells expressing FLAG-SLAMF7, anti-CD11b immunoblot; confocal co-localization
T1 construct: whole, on cells; Together with CD18 it constitutes Mac-1; Endogenous protein recovered from cell lysates; also called Mac-1 (CD11b); CR3 alpha subunit
T1 sequence (P05555 17-1153): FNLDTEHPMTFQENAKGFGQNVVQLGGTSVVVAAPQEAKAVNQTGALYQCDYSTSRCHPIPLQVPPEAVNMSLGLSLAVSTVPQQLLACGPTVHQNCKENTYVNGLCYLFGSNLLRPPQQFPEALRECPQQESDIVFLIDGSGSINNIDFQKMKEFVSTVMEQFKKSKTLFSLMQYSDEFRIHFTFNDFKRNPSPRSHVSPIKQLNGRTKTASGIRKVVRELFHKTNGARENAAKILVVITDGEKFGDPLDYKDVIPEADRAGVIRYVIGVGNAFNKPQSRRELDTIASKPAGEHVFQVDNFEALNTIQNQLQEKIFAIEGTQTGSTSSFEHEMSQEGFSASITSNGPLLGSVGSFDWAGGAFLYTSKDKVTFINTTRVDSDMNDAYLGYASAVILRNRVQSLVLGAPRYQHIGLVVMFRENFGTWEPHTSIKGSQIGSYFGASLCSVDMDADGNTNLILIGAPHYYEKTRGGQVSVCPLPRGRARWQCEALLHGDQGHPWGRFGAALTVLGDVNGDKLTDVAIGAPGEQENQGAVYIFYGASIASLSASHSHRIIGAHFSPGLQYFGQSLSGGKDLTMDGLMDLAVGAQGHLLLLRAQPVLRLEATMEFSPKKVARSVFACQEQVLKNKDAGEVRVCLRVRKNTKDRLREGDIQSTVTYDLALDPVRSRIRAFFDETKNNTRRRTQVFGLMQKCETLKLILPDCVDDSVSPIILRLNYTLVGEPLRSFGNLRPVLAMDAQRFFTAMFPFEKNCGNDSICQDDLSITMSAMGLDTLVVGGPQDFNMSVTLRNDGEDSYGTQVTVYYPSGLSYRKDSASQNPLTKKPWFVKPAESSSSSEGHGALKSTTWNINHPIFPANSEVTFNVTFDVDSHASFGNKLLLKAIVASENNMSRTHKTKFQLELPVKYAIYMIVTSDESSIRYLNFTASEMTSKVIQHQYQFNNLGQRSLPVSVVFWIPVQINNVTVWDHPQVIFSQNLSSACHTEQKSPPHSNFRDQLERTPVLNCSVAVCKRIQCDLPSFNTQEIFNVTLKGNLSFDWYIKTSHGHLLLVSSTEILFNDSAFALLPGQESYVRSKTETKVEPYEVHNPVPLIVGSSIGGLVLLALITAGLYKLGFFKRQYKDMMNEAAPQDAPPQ
Experimental: (§1) Authenticated cells. (FIG. 9D) Lysates from the mouse macrophage cell line RAW264.7 expressing GFP alone or in combination with a FLAG-tagged version of mouse SLAMF7 (FLAG-SLAMF7) were immunoprecipitated with anti-FLAG. They were then probed by immunoblotting with anti-CD11b (Mac-1) or anti-SLAMF7. Total cell lysates were analyzed in parallel. (FIG. 9E) Co-localization of SLAMF7 and CD11b in RAW264.7 cells expressing GFP alone or with FLAG-SLAMF7 assessed by immunofluorescence. Semi-confluent RAW264.7 cells expressing GFP alone (bottom) or in combination with FLAG-SLAMF7 (top) were fixed and stained with antibodies against FLAG, CD11b (Mac-1) or CD18, as detailed in Example 1. Staining was detected by confocal microscopy. Scale bar, 5 μm. […] (FIG. 9F) As in FIG. 9E, except that only RAW264.7 cells expressing FLAG-SLAMF7 were analyzed and that antibodies coupled to different fluorophores were used. […] (FIG. 9G-A and FIG. 9G-B) RAW264.7 derivatives expressing GFP alone or in combination with FLAG-SLAMF7 were analyzed by flow cytometry, using antibodies directed against FLAG and SLAMF7 (dotted lines). […]
(§2) Immunoprecipitations, mass spectrometry, immunoblots. […] In brief, immunoprecipitated proteins were digested with trypsin (Promega, Madison, Wis.) and analyzed by LC-MS/MS on a LTQ Orbitrap™ Velos (ThermoFisher Scientific, Bremen, Germany) equipped with a Proxeon nanoelectrospray™ ion source. […]

[3] = biological target: T1, mouse CD11b (integrin alphaM, alpha …); assay: anti-CD11b immunoprecipitation from WT and CD11b KO BMDM lysates, mass spectrometry
Experimental: as §1, §2

C[C@@H]1C[C@H]2[C@@H]3CCC4=CC(=O)C=C[C@]4(C)[C@@]3(F)[C@@H](O)C[C@]2(C)[C@@]1(O)C(=O)CO [dexamethasone]
cells becoming apoptotic (annexin V-positive) (thymocytes): about 70%

lipopolysaccharide [LPS]
phagocytosis of non-hematopoietic targets [1]: phagocytosis of non-hematopoietic targets was seen

B1: FLAG-tagged version of mouse SLAMF7 (receptor, UniProt Q8BHK6 23-333, looked up)
chain: SGTLKKVAGALDGSVTFTLNITEIKVDYVVWTFNTFFLAMVKKDGVTSQSSNKERIVFPDGLYSMKLSQLKKNDSGAYRAEIYSTSSQASLIQEYVLHVYKHLSRPKVTIDRQSNKNGTCVINLTCSTDQDGENVTYSWKAVGQGDNQFHDGATLSIAWRSGEKDQALTCMARNPVSNSFSTPVFPQKLCEDAATDLTSLRGILYILCFSAVLILFAVLLTIFHTTWIKKGKGCEEDKKRVDRHQEMPDLCPHLEENADYDTIPYTEKRRPEEDAPNTFYSTVQIPKVVKSPSSLPAKPLVPRSLSFENVI
notes: whole, on cells; It was immunoprecipitated with anti-FLAG from RAW264.7 lysates; also called FLAG-SLAMF7; not shown: FLAG tag
binding result [2]: binds

B2: mouse CD64 (Fc receptor) (receptor, UniProt P26151 25-404, looked up)
chain: EVVNATKAVITLQPPWVSIFQKENVTLWCEGPHLPGDSSTQWFINGTAVQISTPSYSIPEASFQDSGEYRCQIGSSMPSDPVQLQIHNDWLLLQASRRVLTEGEPLALRCHGWKNKLVYNVVFYRNGKSFQFSSDSEVAILKTNLSHSGIYHCSGTGRHRYTSAGVSITVKELFTTPVLRASVSSPFPEGSLVTLNCETNLLLQRPGLQLHFSFYVGSKILEYRNTSSEYHIARAEREDAGFYWCEVATEDSSVLKRSPELELQVLGPQSSAPVWFHILFYLSVGIMFSLNTVLYVKIHRLQREKKYNLEVPLVSEQGKKANSFQQVRSDGVYEEVTATASQTTPKEAPDGPRSSVGDCGPEQPEPLPPSDSTGAQTSQS
notes: whole, on cells
binding result [3]: no binding

B3: mouse CD16 (Fc receptor) (receptor, UniProt P08508 31-261, looked up)
chain: ALPKAVVKLDPPWIQVLKEDMVTLMCEGTHNPGNSSTQWFHNGRSIRSQVQASYTFKATVNDSGEYRCQMEQTRLSDPVDLGVISDWLLLQTPQRVFLEGETITLRCHSWRNKLLNRISFFHNEKSVRYHHYKSNFSIPKANHSHSGDYYCKGSLGSTQHQSKPVTITVQDPATTSSISLVWYHTAFSLVMCLLFAVDTGLYFYVRRNLQTPREYWRKSLSIRKHQAPQDK
notes: whole, on cells
binding result [3]: no binding
